{
  "source": "the RNAGym collection of RNA variant scans (doi:10.7554/elife.90254)",
  "parents": {"B1": {"name": "OR4K15 (parent)", "chain": "GUUAACGGUCAUAGGCCAUGGAAACUAGGAGCACCAUUUCGCUGCCAGUGAAGAAAUGAACAAAGAAAAUCUGGGCCAGGCAGGCAUCAAAAGAAAUAGUCUUGCGCUCAACCAGAAAGUCUGUAAUCAUUUUAAGGGUA"}},
  "data": [
    {"variants_of": "B1", "assay": "self-cleavage, relative activity (ratio to wild type); higher = more cleavage; in vitro, sequencing; the parent is a self-cleaving ribozyme", "values": [
      {"variant": "A11C A27U", "self-cleavage": 1.24},
      {"variant": "U9C U108A", "self-cleavage": 0.04},
      {"variant": "U9C U122A", "self-cleavage": 1.06},
      {"variant": "A11G C46U", "self-cleavage": 0.77},
      {"variant": "A11C A13U", "self-cleavage": 1.09},
      {"variant": "C10U A90C", "self-cleavage": 0.97},
      {"variant": "U9A A56G", "self-cleavage": 1.3},
      {"variant": "U9A U102C", "self-cleavage": 1.97},
      {"variant": "C10U A86G", "self-cleavage": 0.7},
      {"variant": "U9A A51U", "self-cleavage": 1.34},
      {"variant": "U9A A51G", "self-cleavage": 1.66},
      {"variant": "C10A U37C", "self-cleavage": 1},
      {"variant": "C10A U37G", "self-cleavage": 0.71},
      {"variant": "G7U G21A", "self-cleavage": 0.87},
      {"variant": "U9C C35A", "self-cleavage": 1.71},
      {"variant": "U9C G115C", "self-cleavage": 0.11},
      {"variant": "G7U A52G", "self-cleavage": 1.83},
      {"variant": "G7A A90U", "self-cleavage": 2.31},
      {"variant": "U9C U87A", "self-cleavage": 1.98},
      {"variant": "U9C U87C", "self-cleavage": 0.96},
      {"variant": "U9C U87G", "self-cleavage": 0.69},
      {"variant": "A11G A36U", "self-cleavage": 1.12},
      {"variant": "U9A G115A", "self-cleavage": 0.23},
      {"variant": "U9C A91C", "self-cleavage": 2.12},
      {"variant": "U9C A91G", "self-cleavage": 1.2},
      {"variant": "G8U A126G", "self-cleavage": 0.32},
      {"variant": "G7A G75U", "self-cleavage": 0.13},
      {"variant": "C10U A22U", "self-cleavage": 1.21},
      {"variant": "U9C A117U", "self-cleavage": 1.04},
      {"variant": "U9C A117G", "self-cleavage": 1.91},
      {"variant": "G7A U133A", "self-cleavage": 0.79},
      {"variant": "G7U C77A", "self-cleavage": 0.23},
      {"variant": "G8A U122C", "self-cleavage": 0.6},
      {"variant": "U9C A78G", "self-cleavage": 0.32},
      {"variant": "A11C A78G", "self-cleavage": 0.18},
      {"variant": "U9C A67C", "self-cleavage": 1.31},
      {"variant": "U9C A67G", "self-cleavage": 1.85},
      {"variant": "U9C U102C", "self-cleavage": 2.15},
      {"variant": "U9C U102A", "self-cleavage": 1.31},
      {"variant": "G8A A98G", "self-cleavage": 1.78},
      {"variant": "A11G A126G", "self-cleavage": 0.39},
      {"variant": "U9A C32U", "self-cleavage": 1.2},
      {"variant": "A11G C81U", "self-cleavage": 0.75},
      {"variant": "U9C A69G", "self-cleavage": 1.38},
      {"variant": "C10U U100C", "self-cleavage": 2.44},
      {"variant": "U9C U19C", "self-cleavage": 1.77},
      {"variant": "U9C U19A", "self-cleavage": 1.65},
      {"variant": "C10U A68G", "self-cleavage": 0.34},
      {"variant": "U9C A125G", "self-cleavage": 0.66},
      {"variant": "G7U A91G", "self-cleavage": 0.72},
      {"variant": "U9A A126G", "self-cleavage": 0.57},
      {"variant": "G8A A47C", "self-cleavage": 1.67},
      {"variant": "U9A A86U", "self-cleavage": 1.37},
      {"variant": "U9C A114U", "self-cleavage": 0.1},
      {"variant": "U9A U139C", "self-cleavage": 1.69},
      {"variant": "A11G A69U", "self-cleavage": 1},
      {"variant": "A11G A69G", "self-cleavage": 0.99},
      {"variant": "C10U U120C", "self-cleavage": 1.12},
      {"variant": "U9C A64G", "self-cleavage": 1.52},
      {"variant": "U9C C81U", "self-cleavage": 0.36},
      {"variant": "U9C A36U", "self-cleavage": 1.48},
      {"variant": "G7U A86U", "self-cleavage": 1.63},
      {"variant": "G7U A66G", "self-cleavage": 1.42},
      {"variant": "U9A A63G", "self-cleavage": 1.23},
      {"variant": "C10U U37C", "self-cleavage": 1.65},
      {"variant": "A11C U43C", "self-cleavage": 2.23},
      {"variant": "A11G C85A", "self-cleavage": 1.53},
      {"variant": "U9C U57C", "self-cleavage": 1.07},
      {"variant": "U9C U57G", "self-cleavage": 1.07},
      {"variant": "G8A A68G", "self-cleavage": 2.15},
      {"variant": "G7A U127C", "self-cleavage": 1.29},
      {"variant": "A11G A33G", "self-cleavage": 0.84},
      {"variant": "A11G A33C", "self-cleavage": 1.98},
      {"variant": "U9C C40U", "self-cleavage": 1.45},
      {"variant": "U9C A86U", "self-cleavage": 1.74},
      {"variant": "U9A A116G", "self-cleavage": 0.45},
      {"variant": "U9A A116U", "self-cleavage": 0.18},
      {"variant": "U9G A91C", "self-cleavage": 0.6},
      {"variant": "U9C C61U", "self-cleavage": 2.27},
      {"variant": "U9C U26C", "self-cleavage": 1.06},
      {"variant": "C10U", "self-cleavage": 0.84},
      {"variant": "C10A", "self-cleavage": 1.11},
      {"variant": "U9A U124C", "self-cleavage": 0.91},
      {"variant": "A11G A47U", "self-cleavage": 0.98},
      {"variant": "U9G A129G", "self-cleavage": 0.65},
      {"variant": "A11C U103C", "self-cleavage": 0.98},
      {"variant": "U9C C105U", "self-cleavage": 0.14},
      {"variant": "U9C A55G", "self-cleavage": 1.28},
      {"variant": "A11C U102C", "self-cleavage": 1.91},
      {"variant": "G7U A18G", "self-cleavage": 1.68},
      {"variant": "U9G U108C", "self-cleavage": 0.05},
      {"variant": "U9A U39C", "self-cleavage": 0.86},
      {"variant": "U9A A129U", "self-cleavage": 1.02},
      {"variant": "A11G A56G", "self-cleavage": 0.35},
      {"variant": "A11C U131C", "self-cleavage": 0.89},
      {"variant": "A11C A114U", "self-cleavage": 0.09},
      {"variant": "U9C G106A", "self-cleavage": 0.01},
      {"variant": "U9C G106U", "self-cleavage": 0},
      {"variant": "C10U U39A", "self-cleavage": 0.81},
      {"variant": "U9C A95G", "self-cleavage": 1.88},
      {"variant": "U9A U108C", "self-cleavage": 0.03},
      {"variant": "G7A U70C", "self-cleavage": 1},
      {"variant": "G7U A23G", "self-cleavage": 1.04},
      {"variant": "G7U A23C", "self-cleavage": 1.66},
      {"variant": "U9C U39C", "self-cleavage": 1.45},
      {"variant": "U9C U39A", "self-cleavage": 1.33},
      {"variant": "A11G A23G", "self-cleavage": 1.1},
      {"variant": "G7U A11G", "self-cleavage": 1.63},
      {"variant": "G8U U108A", "self-cleavage": 0},
      {"variant": "G7C", "self-cleavage": 1.07},
      {"variant": "G7U", "self-cleavage": 1.23},
      {"variant": "A11G A13G", "self-cleavage": 1.26},
      {"variant": "A11G A13U", "self-cleavage": 0.72},
      {"variant": "G7A U9C", "self-cleavage": 2.32},
      {"variant": "U9C G65A", "self-cleavage": 2.38},
      {"variant": "C10U A94G", "self-cleavage": 1.27},
      {"variant": "U9A A66G", "self-cleavage": 1},
      {"variant": "C10U G31U", "self-cleavage": 1.22},
      {"variant": "C10U A125G", "self-cleavage": 0.61},
      {"variant": "U9G A92G", "self-cleavage": 1.15},
      {"variant": "A11C A86G", "self-cleavage": 1.7},
      {"variant": "U9C U97C", "self-cleavage": 1.09},
      {"variant": "U9C A52C", "self-cleavage": 1.39},
      {"variant": "U9C G123A", "self-cleavage": 2.14},
      {"variant": "U9A G58A", "self-cleavage": 0.78},
      {"variant": "U9C A66U", "self-cleavage": 1.42},
      {"variant": "G7C A23G", "self-cleavage": 0.73},
      {"variant": "U9C G31A", "self-cleavage": 1.12},
      {"variant": "U9C U72C", "self-cleavage": 0.2},
      {"variant": "U9A A47U", "self-cleavage": 0.91},
      {"variant": "C10A G44A", "self-cleavage": 1.2},
      {"variant": "A11G C61A", "self-cleavage": 0.69},
      {"variant": "A11G C105U", "self-cleavage": 0.09},
      {"variant": "A11C U38C", "self-cleavage": 1.72},
      {"variant": "G8A A117U", "self-cleavage": 1.67},
      {"variant": "A11G A24C", "self-cleavage": 1.51},
      {"variant": "A11G A24G", "self-cleavage": 1.02},
      {"variant": "A11G A24U", "self-cleavage": 0.53},
      {"variant": "U9C A62G", "self-cleavage": 1.49},
      {"variant": "G7C A11G", "self-cleavage": 1.03},
      {"variant": "A11G A27G", "self-cleavage": 1.1},
      {"variant": "U9C A96U", "self-cleavage": 1.72},
      {"variant": "G7U A118G", "self-cleavage": 1.38},
      {"variant": "U9C U132A", "self-cleavage": 1.85},
      {"variant": "U9A U38C", "self-cleavage": 1.05},
      {"variant": "A11C A82U", "self-cleavage": 0.36},
      {"variant": "C10U A78G", "self-cleavage": 0.1},
      {"variant": "G8A A118G", "self-cleavage": 1.28},
      {"variant": "U9C U49A", "self-cleavage": 1.56},
      {"variant": "U9C U49C", "self-cleavage": 1.67},
      {"variant": "U9C U49G", "self-cleavage": 0.96},
      {"variant": "A11G A64G", "self-cleavage": 1.3},
      {"variant": "A11G A64U", "self-cleavage": 0.97},
      {"variant": "A11C A110U", "self-cleavage": 1.76},
      {"variant": "G7U U97A", "self-cleavage": 1.41},
      {"variant": "U9A C34U", "self-cleavage": 0.55},
      {"variant": "U9C U131A", "self-cleavage": 1.8},
      {"variant": "U9G U130C", "self-cleavage": 0.7},
      {"variant": "U9A A117G", "self-cleavage": 2.34},
      {"variant": "A11C A52U", "self-cleavage": 1.5},
      {"variant": "G8A A27G", "self-cleavage": 1.84},
      {"variant": "U9C U12A", "self-cleavage": 1.59},
      {"variant": "U9C U12C", "self-cleavage": 1.27},
      {"variant": "U9A A24U", "self-cleavage": 2.1},
      {"variant": "A11G A116G", "self-cleavage": 0.92},
      {"variant": "A11G A116U", "self-cleavage": 0.12},
      {"variant": "U9C A98G", "self-cleavage": 0.22}
    ]}
  ]
}
